Here are results for 3 proteins from US20080166798A1 (BARNES JEWISH HOSPITAL, published 2008).

Data set [1] deals with the molecule itself. Nature of the data set: self-association; BS3 cross-linking (0-2 mM), anti-IIA immunoblot. How it is done:
J. 318:505-511 (1996)) (FIG. 8). Each mutant protein was covalently cross-linked and the presence of protein monomers, dimers or trimers was detected by immunoblotting using the anti-IIA antibody. […] The IIA NH₂-propeptide attached to the 35 amino acid stretch of the coiled-coil neck (mIIA-237) was also secreted as a non-covalent trimer. However, lower concentrations of cross-linker (0.1-0.2 mM) were sufficient for detection of mIIA-237 trimers compared to concentrations used to detect trimers of the other truncated mutant proteins (0.5-1 mM), and no dimeric intermediate was identified. Co-operativity exists between the IIA NH₂-propeptide collagen domain and the 14 amino acid sequence of the SP-D coiled-coil neck domain
To determine the minimum sequence that can function as a trimerizing unit, mutant constructs were designed containing termination codons at specific locations within the heptad repeats of the coiled-coil. Using IIA/SP-D cDNA in pGEM-3Z as a substrate, four mutant constructs were synthesized using the QuikChangem Site-Directed Mutagenesis Kit (Stratagene, La Jolla, Calif.). The sequence of the mutant was confirmed by DNA sequencing. […] Proteins were detected by SDS-PAGE and immunolocalization of Western blots using the anti-IIA polyclonal antibody.

Data set [2] concerns the molecule itself. Nature of the data set: self-association; BS3 cross-linking, IIA Western blot. From the text:
Chemical crosslinking was used to examine the state of oligomerization of the IIA collagen domain.
A general note: Immunoblotting shows a protein as a band on a membrane.

B1: mIIA-211 (other, human;rat, UniProt P02458 26-203, looked up)
chain: QDVQEAGSCVQDGQRYNDKDVWKPEPCRICVCDTGTVLCDDIICEDVKDCLSPEIPFGECCPICPTDLATASGQPGPKGQKGEPGDIKDIVGPKGPPGPQGPAGEQGPRGDRGDKGEKGAPGPRGRDGEPGTPGNPGPPGPPGPPGPPGLGGNFAAQMAGGFDEKAGGAQLGVMQGPMDSAALRQQ
notes: domain: NH2-propeptide (exons 1-8);domain: first heptad repeat of the coiled-coil neck domain; Truncation mutant of IIA/SP-D; also called IIA NH2-propeptide fused to the first heptad repeat
Regarding B1, the binding result in data set [1] is given as “no binding”.

B2: IIA NH2-propeptide synthesized without fusion to the neck/CRD domains of SP-D (other, human, UniProt P02458 26-203, looked up)
chain: QDVQEAGSCVQDGQRYNDKDVWKPEPCRICVCDTGTVLCDDIICEDVKDCLSPEIPFGECCPICPTDLATASGQPGPKGQKGEPGDIKDIVGPKGPPGPQGPAGEQGPRGDRGDKGEKGAPGPRGRDGEPGTPGNPGPPGPPGPPGPPGLGGNFAAQMAGGFDEKAGGAQLGVMQGPM
notes: domain: NH2-propeptide (exons 1-8); Transiently transfected CHO cells; secreted as monomers; also called control construct of full-length IIA NH2-propeptide only
With B2, the binding result in data set [2] was “no binding”.

B3: mIIA-203 (other, human, UniProt P02458 26-203, looked up)
chain: QDVQEAGSCVQDGQRYNDKDVWKPEPCRICVCDTGTVLCDDIICEDVKDCLSPEIPFGECCPICPTDLATASGQPGPKGQKGEPGDIKDIVGPKGPPGPQGPAGEQGPRGDRGDKGEKGAPGPRGRDGEPGTPGNPGPPGPPGPPGPPGLGGNFAAQMAGGFDEKAGGAQLGVMQGPM
notes: domain: NH2-propeptide (exons 1-8); Truncation mutant of IIA/SP-D, control
Consider B3, for which, in data set [1], the binding result is “no binding”.
